From US10221439B2, “Sensors, methods and kits for detecting nicotinamide adenine dinucleotides” (Max-Planck-Gesellschaft zur Förderung der Wissenschaften …, priority 2015, dated 2019)

Assay: Titration of NAD-specific FRET sensor with NAD^+ and NADP^+
Type: binding
Procedure: In order to evaluate, that these mutations were sufficient to fully switch the specificity of the cofactor binding site of SPR from NADP(H) to NAD(H), we prepared titration experiments according to the similar procedure explained herein (example 3). The labelled sensor were diluted in buffer solution containing defined concentrations of NAD^+ and NADP^+ and measure with the fluorimeter (TECAN) (FIG. 4).

B1: SPR mutant with Asp^41 and Ala^42: initial trial SPR mutant sensor for NAD^+ (conjugate, UniProt P35270 1-261, looked up, variant A41D R42A)
Sepiapterin reductase: MEGGLGRAVCLLTGASRGFGRTLAPLLASLLSPGSVLVLSDANDEALRQLEAELGAERSGLRVVRVPADLGAEAGLQQLLGALRELPRPKGLQRLLLINNAGSLGDVSKGFVDLSDSTQVNNYWALNLTSMLCLTSSVLKAFPDSPGLNRTVVNISSLCALQPFKGWALYCAGKAARDMLFQVLALEEPNVRVLNYAPGPLDTDMQQLARETSVDPDMRKGLQELKAKGKLVDCKVSAQKLLSLLEKDEFKSGAHVDFYDK
  affinity and specificity for NAD^+: low affinity, but high specificity for NAD^+
